Test results taken from paper PMC6745058 (Molecular cell, 2019).

Biological target: T1, Rtt107NTD (BRCT1-4 domains of Rtt107, residues 2-513) (S. cerevisiae, UniProt P38850 2-513)
T1 sequence (looked up): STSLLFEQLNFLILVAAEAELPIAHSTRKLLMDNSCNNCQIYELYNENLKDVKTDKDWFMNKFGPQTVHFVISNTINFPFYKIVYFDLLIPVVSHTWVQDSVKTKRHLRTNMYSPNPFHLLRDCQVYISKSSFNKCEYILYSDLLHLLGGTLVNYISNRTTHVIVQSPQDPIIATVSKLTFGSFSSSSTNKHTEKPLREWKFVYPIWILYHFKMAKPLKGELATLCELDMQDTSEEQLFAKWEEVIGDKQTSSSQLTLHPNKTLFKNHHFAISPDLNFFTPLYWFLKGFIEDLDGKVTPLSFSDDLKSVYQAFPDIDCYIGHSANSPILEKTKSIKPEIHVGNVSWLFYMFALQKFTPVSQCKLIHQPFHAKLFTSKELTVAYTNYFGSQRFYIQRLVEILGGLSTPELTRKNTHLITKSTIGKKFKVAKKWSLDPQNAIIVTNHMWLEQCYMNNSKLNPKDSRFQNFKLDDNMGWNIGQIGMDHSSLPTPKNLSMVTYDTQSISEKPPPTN
Experiment: ITC

## DVDEPNPIVISDSEATDEEISIIYEPEFNENYLWAEE (peptide, UniProt Q06164 2-38, looked up) [Mms22RIM peptide (Mms22 residues 2-38)]
  Kd: 15 nM
